Measurements taken from patent US20200325209A1.

Columns and labels:
[1] = target: human neonatal Fc receptor FcRn/β2m, soluble recombinant (human) (UniProt P55899); assay: flow cytometry, labelled FcRn on CHO-displayed HSA, pH 5.5
[2] = target: human neonatal Fc receptor FcRn/β2m, soluble recombinant (human) (UniProt P55899); assay: flow cytometry, labelled FcRn on CHO-displayed HSA, pH 7.4

human neonatal Fc receptor FcRn/β2m, soluble recombinant (human), sequence (P55899 24-297 limits assumed, chain 1 of 2): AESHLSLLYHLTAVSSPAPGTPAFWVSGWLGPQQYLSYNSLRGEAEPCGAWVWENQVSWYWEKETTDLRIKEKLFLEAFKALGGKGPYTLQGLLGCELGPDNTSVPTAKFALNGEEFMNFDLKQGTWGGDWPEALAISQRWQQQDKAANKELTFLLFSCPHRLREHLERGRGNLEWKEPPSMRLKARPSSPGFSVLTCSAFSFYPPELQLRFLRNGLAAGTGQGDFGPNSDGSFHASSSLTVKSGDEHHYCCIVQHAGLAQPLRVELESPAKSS
human neonatal Fc receptor FcRn/β2m, soluble recombinant (human), sequence (P61769 21-119 limits assumed, chain 2 of 2, further chain): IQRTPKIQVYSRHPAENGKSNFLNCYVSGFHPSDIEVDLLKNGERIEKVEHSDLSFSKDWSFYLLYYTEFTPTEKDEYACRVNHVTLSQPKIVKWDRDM

HSA [G572D], membrane-tethered on CHO cells (from UniProt P02768 25-609)
mean geoMFI [1]: 305
mean geoMFI [2]: 32.7

HSA [G572N], membrane-tethered on CHO cells (from UniProt P02768 25-609)
mean geoMFI [1]: 85.8
mean geoMFI [2]: 36.4

HSA [G572P], membrane-tethered on CHO cells (from UniProt P02768 25-609)
mean geoMFI [1]: 216
mean geoMFI [2]: 30.6

HSA [G572Q], membrane-tethered on CHO cells (from UniProt P02768 25-609)
mean geoMFI [1]: 201

HSA [G572V], membrane-tethered on CHO cells (from UniProt P02768 25-609)
mean geoMFI [1]: 58.2
mean geoMFI [2]: 20.7

HSA [Q522A], membrane-tethered on CHO cells (from UniProt P02768 25-609)
mean geoMFI [2]: 17.8

HSA [Q522D], membrane-tethered on CHO cells (from UniProt P02768 25-609)
mean geoMFI [1]: 317
mean geoMFI [2]: 22.4

HSA [Q522E], membrane-tethered on CHO cells (from UniProt P02768 25-609)
mean geoMFI [1]: 128
mean geoMFI [2]: 29.2

HSA [Q522H], membrane-tethered on CHO cells (from UniProt P02768 25-609)
mean geoMFI [2]: 27.2

HSA [Q522N], membrane-tethered on CHO cells (from UniProt P02768 25-609)
mean geoMFI [2]: 31.4

HSA [Q522P], membrane-tethered on CHO cells (from UniProt P02768 25-609)
mean geoMFI [2]: 29.4

HSA [Q522R], membrane-tethered on CHO cells (from UniProt P02768 25-609)
mean geoMFI [1]: 386
mean geoMFI [2]: 17.8

HSA [Q522S], membrane-tethered on CHO cells (from UniProt P02768 25-609)
mean geoMFI [1]: 258
mean geoMFI [2]: 32.7

HSA [Q522T], membrane-tethered on CHO cells (from UniProt P02768 25-609)
mean geoMFI [1]: 290
mean geoMFI [2]: 28.3
